US20250101089A1
pKd: −log10 of the molar value.

Molecular target: 6×His human TRIM21 PRYSPRY labelled with Alexa Fluor 488 (human) (UniProt P19474)
Experiment: fluorescence anisotropy; 5 nM Alexa Fluor 488-labelled human TRIM21 PRYSPRY, antibody titrated

Chain of UniProt P19474 (P19474 287-465 limits assumed): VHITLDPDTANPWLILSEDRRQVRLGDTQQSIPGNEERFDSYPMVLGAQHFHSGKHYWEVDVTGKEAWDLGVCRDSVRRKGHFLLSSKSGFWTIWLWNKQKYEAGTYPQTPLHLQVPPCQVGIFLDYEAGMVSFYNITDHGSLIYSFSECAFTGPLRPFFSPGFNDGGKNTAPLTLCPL

Substance | pKd | fold increase in affinity against 9C12 WT [fold]
9C12 N297A T256P (mouse-human chimeric, human IgG1 Fc) (antibody) | 9.33 | –
9C12 T256P (mouse-human chimeric, human IgG1 Fc) (antibody) | 9.00 | 10
AP422 N297A (mouse-human chimeric, human IgG1 Fc region) (antibody) | 7.85 | –
AP422 N297A T256P (mouse-human chimeric, human IgG1 Fc region) (antibody) | 9.05 | –
AP422 NALALA (N297A, L234A, L235A; mouse-human chimeric, human IgG1 Fc region) (antibody) | 7.54 | –
AP422 NALALA T256P (mouse-human chimeric, human IgG1 Fc region) (antibody) | 10.00 | –
AP422 T256P (mouse-human chimeric, human IgG1 Fc region) (antibody) | 9.15 | –
